# Data taken from the supplement of paper PMC10201428.
# ± gives the standard deviation of the averaged measurements.
# Tested on: VchCAST RNA-guided transposition machinery (E. coli BL21(DE3) host, lacZ target)
# Assay: relative integration efficiency (T-RL orientation) vs wild-type transposon end (log2 (normalized fold change)); transposon end mutated: right end (5 bp flank + 75 bp right end); higher = more efficient transposition
# Procedure, shortened: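 A T7-driven effector plasmid encoding a CRISPR array, tniQ-cas8-cas7-cas6 and tnsA-tnsB-tnsC was co-transformed into E. coli BL21(DE3) together with a pUC57 mini-transposon donor holding barcoded pools of 1549 left-end or 1849 right-end variants. Transformants were plated with 0.1 mM IPTG at 37°C for 18 h. Illumina sequencing of PCR-amplified input plasmids and genomic integration junctions gave barcode abundances, and relative integration efficiency is their output/input fold change, normalised to reference barcodes and log-transformed.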
row,Sequence,relative integration efficiency (log2)
1,ACATTTGTTGATACAACCATTAAATGATAATTCCACCCATAAATTGATAATTATCACACCCAATTTAACTATAACGCTCTGATCATAGTCAGACCAACATTGCTACGACCCGTATTCGCACCGACAC,-1.06 ± 0.17
2,ACATTTGTTGATACAACCATAAAATGATCATTACACCCATAAATTGATCATTATCACACCCATAAATTGATCTTGCCTCTGATCATAGTCAGACCAACATTGCTACGACCCGTATTCGCACCGACAC,-1.214 ± 0.0037
3,ACATTTGTTGATACAACCATAAAATGATAATTACACCCATAAATTGATAATTATCACACCCATAAATTGATATTGCCTCTTTGTGAGCGGATAACAAGATCATAGTCAGACCAACATGCACCGACAC,-0.26 ± 0.07
4,ACATTTGTTGATACAACCATAAAATCATAATTACCCCCATCAATTGATAATTATCCCACCCCATTTAACTATAACGCTCTGATCATAGTCAGACCAACATTGCTACGACCCGTATTCGCACCGACAC,-5.42 ± 0.086
5,ACATTTGTTGATACAACCATAAAAGGATCATTACACCCATCAATTGATAATTATCACACCCAATTTAACTATAACGCTCTGATCATAGTCAGACCAACATTGCTACGACCCGTATTCGCACCGACAC,-3.44 ± 0.37
6,ACATTTGTTGATACAACCATAAAATGATAATTAACACCCATAAATTGATAATTATCAACAAACGCCCGGTCGCGGTACTCTGATCATAGTCAGACCAACATTGCTACGACCCGTATTCGCACCGACA,-0.721 ± 0.29
7,ACATTGGTGGATACAACCATAAAATGATAATTACACCCATAAATGGATCATTATCACACCCAATTTAACTATAACGCTCTGATCATAGTCAGACCAACATTGCTACGACCCGTATTCGCACCGACAC,-7.25 ± 0.2
8,ACATTTGTTGATACAACCCTAAAATGATAATTACACCCATAAATTCATCATTATCACACCCAATTTAACTATAACGCTCTGATCATAGTCAGACCAACATTGCTACGACCCGTATTCGCACCGACAC,-4.59 ± 0.18
9,ACATTTGTTGATACAACCATAAAATGATAATTACAACCATATATTGATATCTCTCACAACCATAAGTTGATATTTTCTCTGATCATAGTCAGACCAACATTGCTACGACCCGTATTCGCACCGACAC,-0.374 ± 0.19
10,CAAAATGTAAAAAAAACCATACGTTGATTTTACCACCCATAAATTGATAATTAAAACAACCATACCTTGAAATTGCTTATAAAGTGTACAACACTTGAGAAAGTTTACTACAGGTATGCACCGACAC,-4.977 ± 0.011
11,ACATTTGTTGATACAACCATAAAATGATAATTACACCCATAAATTGATAATTATACACAAACGCCCGGTCGCGGTAAGAGGATCATAGTCAGACCAACATTGCTACGACCCGTATTCGCACCGACAC,-1.49 ± 0.49
12,ACATTTGTGGATACAACCCTAAAATGATAATTACACCCATAAATTCATCATTATCACCCCCAATTTAACTATAACGCTCTGATCATAGTCAGACCAACATTGCTACGACCCGTATTCGCACCGACAC,-4.53 ± 0.011
13,ACATTTGTTGATACACCCATAAATTGATATTGCCAACCATATATTGATATCTCTCAGTGGGTATTTAACTATAACGCTCTGATCATAGTCAGACCAACATTGCTACGACCCGTATTCGCACCGACAC,-1.7 ± 0.32
14,ACATTTGTTGATACAACCATAAAATGATAATTACACCCATAAATTCATTATTATCACACCCAATTTAACTATAACGCTCTGATCATAGTCAGACCAACATTGCTACGACCCGTATTCGCACCGACAC,-2.74 ± 0.49
15,ACATTTGTTGATACAACCATAAAATGATAATTAATAATTATTTATAATCAGCAACTTAACCACAAAACACCCATAAATTGATAATTAACAAAACACCCATAAATTGATATTGCCTCTGATCATAGTC,-5.1 ± 0.59
16,ACATTTGTTGATACACCCATAAATTGATATTGCCAACCATAAAGTGATATTTATCACAACCATAAAGTGATATTTACTCTGATCATAGTCAGACCAACATTGCTACGACCCGTATTCGCACCGACAC,-0.684 ± 0.13
17,CACGTTGTTGATACAACCATAAAATGATAATTACACCCATAAATTGATAATTATCACACCCATAAATTGATATTGCCTCTGATCATAGTCAGACCAACATTGCTACGACCCGTATTCGCACCGACAC,-0.27 ± 0.091
18,ACATTTGTTGATACCACCATCAAATGGTAATTCCACCCATACATTGATAATTATCACACCCAATTTAACTATAACGCTCTGATCATAGTCAGACCAACATTGCTACGACCCGTATTCGCACCGACAC,-6.61 ± 0.18
19,ACATTTGTTGATACAACCATAAAATGATAATTACACCCATAAATTGATAATTATCACACCCATAAATTGATATTGCCTCTGATCATAATTGTTATCCGCTCACAATTCCAGTCAGACGCACCGACAC,-0.659 ± 0.41
20,ACATTTGTTGATACAACCATAAAATGATAATTACACCCATAAATTGATAATTATCACACCCATAAATTGATATTGCTCTGATCATAGTCAGACCAACATTGCTACGACCCGTATTCGCACCGACACT,0.126 ± 0.019
21,ACATTTGTTGATACAACCATAAAATGATCATTACCCCCATCAATTGATAATTATCACACCCAATTTAACTATAACGCTCTGATCATAGTCAGACCAACATTGCTACGACCCGTATTCGCACCGACAC,-3.35 ± 0.24
22,ACATTGGTTGATACAACCATAAAATGATAATTACACCCATAAATGGATCATTATCACACCCAATTTAACTATAACGCTCTGATCATAGTCAGACCAACATTGCTACGACCCGTATTCGCACCGACAC,-7.55 ± 0.43
23,ACATTTGTTGATACACCCATAAATTGATATTGCCACCCATAAATTGATAATTATCACAACCATAAGTTGATATTTTCTCTGATCATAGTCAGACCAACATTGCTACGACCCGTATTCGCACCGACAC,-0.676 ± 0.16
24,ACATTTGTTGATACAACCATAAAATGATAATTACACCCATAAATTGATAATTATCACAAAACGCCCGGTCGCGGTAAGAGGATCATAGTCAGACCAACATTGCTACGACCCGTATTCGCACCGACAC,-0.437 ± 0.16
25,CAAAATGTAAAAAAAACCATACGTTGATTTTACGAAACCATACGCTGAAATAAAAACACCCATAAATTGATATTGCTTATAAAGTGTACAACACTTGAGAAAGTTTACTACAGGTATGCACCGACAC,-8.17 ± 0.95
